Here are results for 1 substance from patent US20140011732A1.

For this assay, the target named is human serum albumin (HSA) (human) (UniProt P02768). In words: competition SPA on biotinylated HSA, 125I acylated GLP-1 tracer.

Sequence of N-epsilon37-[2-(2-[2-(2-[2-(2-((R)-3-[1-(17-Carboxyheptadecanoyl)piperidin-4-ylcarbonylamino]3-carboxypropionylamino)ethoxy)ethoxy]acetylamino)ethoxy]ethoxy)acetyl][DesaminoHis7, Glu22 Arg26, Arg 34, (peptide): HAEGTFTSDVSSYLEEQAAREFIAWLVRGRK

By EC50 is commonly meant the concentration giving half of the maximal effect. High values mean weaker potency, low ones greater potency. In the case of “N-epsilon37-[2-(2-[2-(2-[2-(2-((R)-3-[1-(17-Carboxyheptadecanoyl)piperidin-4-ylcarbonylamino]3-carboxypropionylamino)ethoxy)ethoxy]acetylamino)ethoxy]ethoxy)acetyl][DesaminoHis7, Glu22 Arg26, Arg 34, Phe(m-CF3)28]GLP-1-(7-37)amide (peptide)”, the half-maximal effective concentration (EC50) came to 0.8 µM.
